From the Immune Epitope Database (IEDB) come the findings set out here.

Usually pKd stands for −log10 of the Kd, conventionally taken in molar units.

pKd: −log10 of the molar value. Some results are limits rather than exact numbers.

Test [1] deals with HLA-B*15:03. As to the kind of experiment: IEDB peptide-MHC binding, purified MHC/competitive/radioactivity; filed as Kd, often an IC50 or EC50 that approximates it; ≥ and ≤ were set here for values at or beyond the usual limits of such assays.
The target in test [2] is HLA-B*15:01. The test is described as above.
Test [3] has as its target HLA-B*08:01. Described as above.
Test [4] concerns the target HLA-A*32:01. Described as above.
Test [5] addresses HLA-A*30:01. Described as above.
Test [6] concerns the target HLA-A*02:02. The test is described as above.
The target in test [7] is HLA-A*29:02. The description is as above. The conditions noted are these: source organism: Vaccinia virus WR.
Test [8] addresses HLA-B*07:02. Described as above.
The target in test [9] is HLA-A*24:02. The test is described as above. The conditions noted are these: source organism: Vaccinia virus WR.
For test [10], the target named is HLA-B*51:01. The description is as above.
The target in test [11] is HLA-A*68:02. The description is as above.
Test [12] deals with HLA-A*30:02. The description is as above. The conditions noted are these: source organism: Vaccinia virus WR.
Test [13] addresses HLA-A*26:01. Described as above. The conditions noted are these: source organism: Vaccinia virus WR.
In test [14] the target is HLA-B*54:01. The test is described as above.
For test [15], the target named is HLA-B*53:01. The description is as above.
Test [16] deals with HLA-A*01:01. Described as above.
Test [17] addresses HLA-A*23:01. The test is described as above. Conditions: source organism: Vaccinia virus WR.
Test [18] addresses HLA-B*35:01. The description is as above.
Test [19] deals with HLA-A*02:06. The test is described as above.
Test [20] addresses HLA-A*02:03. The test is described as above.
In test [21] the target is HLA-B*18:01. The test is described as follows: IEDB peptide-MHC binding, purified MHC/direct/fluorescence; filed as Kd, often an IC50 or EC50 that approximates it; ≥ and ≤ were set here for values at or beyond the usual limits of such assays. The conditions noted are these: source organism: Entamoeba histolytica HM-1:IMSS.
For test [22], the target named is HLA-B*40:01. The description is as above. The conditions noted are these: source organism: Entamoeba histolytica HM-1:IMSS.
The target in test [23] is HLA-B*44:03. The test is described as follows: IEDB peptide-MHC binding, purified MHC/competitive/radioactivity; filed as Kd, often an IC50 or EC50 that approximates it; ≥ and ≤ were set here for values at or beyond the usual limits of such assays. Conditions: source organism: Mammarenavirus lassaense.
For test [24], the target named is HLA-A*03:01. Described as above.
Test [25] concerns the target HLA-A*68:01. The description is as above.
The target of test [26] is HLA-A*31:01. The description is as above.
The target in test [27] is HLA-A*02:01. The test is described as above.
Test [28] has as its target HLA-A*11:01. The description is as above.
Test [29] has as its target HLA-A*33:01. The description is as above.
Where [30] appears, read: source organism: Vaccinia virus WR.
[31] abbreviates: source organism: Mammarenavirus lassaense.
Where [32] appears, read: source organism: Hepacivirus hominis.
[33] abbreviates: source organism: Vaccinia virus Copenhagen.
[34] abbreviates: source organism: Triticum aestivum.

For SSVREVFYF, the negative logarithm of the Kd (pKd) in test [1] (setting [30]) is 6.91.
MMSMYGKAF: the pKd is 8.50 in test [2] (setting [30]) and 8.58 in test [1] (setting [30]).
On to RIRRFRRPM, for which the pKd in [3] (setting [30]) was 8.05; in [4] (setting [30]), 6.11; in [2] (setting [30]), 7.44; in [1] (setting [30]), 7.52; in [5] (setting [30]), 8.36.
Consider IMALIVSIF, for which the negative-log Kd (pKd) in [1] (source organism: Vaccinia virus) is 8.34.
Consider KTSTLIFFV, for which the pKd is 8.86 in test [6] (setting [30]); 5.58 in [7]; no more than 4.52 in [8] (setting [30]); 5.18 in test [9]; 4.94 in [10] (setting [30]); 7.33 in [11] (setting [30]). The pKd in test [12] is 6.60; in test [13] it was 5.32; in test [14] (setting [30]) it was 4.86; in test [15] (setting [30]), 4.82; in test [16] (setting [30]), 5.73; in [17], 5.04. In addition, the pKd in test [18] (setting [30]) is no more than 4.45; in test [19] (setting [30]), 8.75; in test [20] (setting [30]), 6.81.
Turning to YEYVLIGIL, the pKd in test [21] was 8.40; in test [22] it was no less than 9.00.
SSRRYRCSF: the values for the pKd in test [3] (setting [30]), in test [2] (setting [30]) and in [1] (setting [30]) were 7.94, 6.17 and 7.26, respectively.
FMLMETMFF: in test [1] (setting [30]), the pKd was 9.73.
Take SQYLSRVSL: in test [1] (setting [30]), the negative-log Kd (pKd) was 9.63.
As for RLYSEGLSI, the pKd in test [2] (setting [30]) was 8.34; in test [1] (setting [30]), 7.50.
In the case of FIKNKIHLL, the pKd in [3] (setting [30]) is 9.09; in test [4] (setting [30]) it was 5.55; in [2] (setting [30]), 7.01; in test [1] (setting [30]), 5.16; in [5] (setting [30]) it was 5.60.
For LPVIFLSIF, the pKd in test [1] (setting [30]) is 6.79.
With CPNSYDSIM, the pKd in test [8] (setting [31]) is 6.85; in [10] (setting [31]) it was 5.64; in [14] (setting [31]), 5.80; in test [15] (setting [31]) it was 7.38; in test [18] (setting [31]), 8.09; in test [23], 5.12.
With HSKKKCDDL, the pKd in test [24] (setting [32]) was no more than 4.11; in test [6] (setting [32]) it was no more than 4.15; in test [25] (setting [32]), no more than 4.11; in test [8] (setting [32]) it was no more than 4.18; in test [10] (setting [32]), no more than 4.28; in test [11] (setting [32]), no more than 4.16. Moreover, the pKd in test [3] (setting [32]) is no more than 4.24; in [26] (setting [32]), no more than 4.11; in test [27] (setting [32]), no more than 4.16; in test [14] (setting [32]), no more than 4.11; in test [28] (setting [32]) it was no more than 4.11; in test [15] (setting [32]) it was no more than 4.24. Further, the pKd was no more than 4.27 in [16] (setting [32]); no more than 4.11 in [18] (setting [32]); no more than 4.11 in test [19] (setting [32]); no more than 4.15 in test [20] (setting [32]); no more than 4.11 in test [29] (setting [32]).
For the sequence SLTIKDSSNK, the pKd in test [24] (setting [30]) is 5.01; in [6] (setting [30]) it was no more than 4.15; in test [25] (setting [30]), no more than 4.28; in test [8] (setting [30]), no more than 4.28; in [10] (setting [30]), no more than 4.16; in test [11] (setting [30]) it was no more than 4.16. In addition, the pKd is no more than 4.15 in [26] (setting [30]); no more than 4.16 in [27] (setting [30]); no more than 4.16 in [14] (setting [30]); no more than 4.60 in test [28] (setting [30]); no more than 4.16 in test [15] (setting [30]); no more than 4.33 in [18] (setting [30]). Moreover, the pKd in test [19] (setting [30]) is no more than 4.16; in test [20] (setting [30]), no more than 4.15; in [29] (setting [30]) it was no more than 4.15.
In the case of NLLCHIYSL, the pKd is 9.51 in test [3] (setting [30]); 6.64 in test [4] (setting [30]); 5.71 in [2] (setting [30]); 5.69 in test [1] (setting [30]); 7.25 in test [5] (setting [30]).
Regarding KKVIGFVSI, the pKd in test [1] (setting [30]) was 8.13.
For KTSSFKISK, the pKd in test [3] (setting [30]) is no more than 4.50; in test [4] (setting [30]), no more than 4.64; in test [2] (setting [30]), no more than 4.21; in test [1] (setting [30]), no more than 4.17; in [5] (setting [30]), 7.06.
As for EEVNIDNSF, the pKd in test [1] (setting [30]) is 5.92.
As to FPSIFSTEV, the pKd in test [8] (setting [31]) was 6.61; in test [10] (setting [31]), 6.48; in [14] (setting [31]), 8.35; in test [15] (setting [31]), 7.24; in test [18] (setting [31]), 7.01.
As to KIGMFNLTF, the negative-log Kd (pKd) in test [3] (setting [30]) was no more than 4.44; in test [4] (setting [30]) it was 9.57; in [2] (setting [30]), 9.68; in test [1] (setting [30]) it was 7.90; in test [5] (setting [30]) it was 5.32.
Turning to NPLFHGGEPI, the negative logarithm of the Kd (pKd) in [8] (setting [30]) was 8.10; in test [10] (setting [30]), 5.35; in test [14] (setting [30]), 6.42; in test [15] (setting [30]), 6.51; in [18] (setting [30]), 5.45.
Regarding YTLYKKLSF, the pKd in [3] (setting [33]) was 7.79; in test [4] (setting [33]), 6.71; in test [2] (setting [33]), 7.84; in test [1] (setting [33]), 7.42; in test [5] (setting [33]) it was 7.65.
With IKFAAGIII, the pKd in test [1] (setting [30]) was 7.80.
For the sequence LKSVETSSL, the pKd in [1] (setting [33]) is 8.42.
With FPKNDFVSF, the pKd in test [3] (setting [30]) was 7.81; in test [4] (setting [30]), no more than 4.27; in test [2] (setting [30]), 7.98; in [1] (setting [30]), 8.37; in test [5] (setting [30]), 5.04.
For the sequence FPGQQQPF, the pKd in test [8] (setting [34]) is no more than 4.43; in [10] (setting [34]), no more than 4.51; in test [14] (setting [34]), no more than 4.06; in test [15] (setting [34]), no more than 4.06; in test [18] (setting [34]) it was no more than 4.06.
MPTYKHLIMF: the negative-log Kd (pKd) is 7.66 in test [8] (setting [30]); 6.07 in test [10] (setting [30]); 7.63 in test [14] (setting [30]); 7.74 in [15] (setting [30]); 7.69 in test [18] (setting [30]).
In the case of CLNNSLMSF, the pKd in test [1] (setting [33]) is 9.11.
